Laboratory results as given in patent publication US20100291108A1 (published 2010).
One block for each binder: values may come before it.

Tests used:
[1] = target: T1, IREM-1-ECD-V5His recombinant protein (human, UniProt Q8TDQ1 20-156); test: SPR (Biacore), mAb captured on the chip, antigen in solution, 25 C; KD = kd/ka
T1 construct: Produced in HEK-293 cells and purified on a Ni column; also called IREM-1 V5-6His protein; recombinant IREM-1 protein containing the complete extracellular domain; not shown: C-terminal V5-His tag

[2] = target: IREM-1Δ1 deletion construct (human); test: flow cytometry on 293 cells expressing the construct
[3] = target: T2, IREM-1Δ3 deletion construct (human); test: as above
T2 construct: Deletion construct of IREM-1 expressed in 293 cells
T2 chain: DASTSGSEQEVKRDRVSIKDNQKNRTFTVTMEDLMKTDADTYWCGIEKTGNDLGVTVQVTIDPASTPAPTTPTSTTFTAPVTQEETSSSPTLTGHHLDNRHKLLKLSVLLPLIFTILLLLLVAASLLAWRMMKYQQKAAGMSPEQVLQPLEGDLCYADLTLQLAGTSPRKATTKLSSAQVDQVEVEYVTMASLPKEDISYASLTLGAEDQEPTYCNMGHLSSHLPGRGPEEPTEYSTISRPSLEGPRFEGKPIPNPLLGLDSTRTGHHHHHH

[4] = target: T3, IREM-1Δ6 deletion construct (human); test: as above
T3 construct: Deletion construct of IREM-1 expressed in 293 cells
T3 chain: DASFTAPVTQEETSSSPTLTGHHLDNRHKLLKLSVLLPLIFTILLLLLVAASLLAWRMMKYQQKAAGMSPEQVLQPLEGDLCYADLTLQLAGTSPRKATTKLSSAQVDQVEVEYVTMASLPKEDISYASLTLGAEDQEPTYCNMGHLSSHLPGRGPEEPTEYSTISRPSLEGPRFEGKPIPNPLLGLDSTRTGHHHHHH

[5] = target: T4, IREM-1Δ5 deletion construct (human); test: as above
T4 construct: Deletion construct of IREM-1 expressed in 293 cells
T4 chain: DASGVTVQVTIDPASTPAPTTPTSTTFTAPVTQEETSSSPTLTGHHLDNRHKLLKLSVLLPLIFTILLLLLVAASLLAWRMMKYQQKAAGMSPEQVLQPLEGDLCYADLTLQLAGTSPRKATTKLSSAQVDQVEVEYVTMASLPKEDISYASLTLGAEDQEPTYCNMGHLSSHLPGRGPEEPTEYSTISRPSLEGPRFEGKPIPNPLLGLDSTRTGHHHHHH

[6] = target: T5, IREM-1Δ4 deletion construct (human); test: as above
T5 construct: Deletion construct of IREM-1 expressed in 293 cells
T5 chain: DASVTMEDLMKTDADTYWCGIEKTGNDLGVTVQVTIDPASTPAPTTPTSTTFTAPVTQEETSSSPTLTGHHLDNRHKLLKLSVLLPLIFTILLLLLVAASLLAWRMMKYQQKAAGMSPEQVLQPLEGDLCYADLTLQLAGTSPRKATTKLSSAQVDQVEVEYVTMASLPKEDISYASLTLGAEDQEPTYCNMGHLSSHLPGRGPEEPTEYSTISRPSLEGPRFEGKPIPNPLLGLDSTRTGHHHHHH

[7] = target: T6, IREM-1Δ2 deletion construct (human); test: as above
T6 construct: Deletion construct of IREM-1 expressed in 293 cells
T6 chain: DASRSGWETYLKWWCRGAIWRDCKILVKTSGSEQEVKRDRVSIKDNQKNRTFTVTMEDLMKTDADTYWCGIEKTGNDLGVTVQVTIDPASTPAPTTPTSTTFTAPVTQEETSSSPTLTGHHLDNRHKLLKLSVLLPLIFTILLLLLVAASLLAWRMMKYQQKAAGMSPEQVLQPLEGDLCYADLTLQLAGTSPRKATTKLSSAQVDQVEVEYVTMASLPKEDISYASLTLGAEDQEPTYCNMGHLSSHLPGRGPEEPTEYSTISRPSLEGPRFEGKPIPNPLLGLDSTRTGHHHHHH

[8] = target: T1, IREM-1-ECD-V5His recombinant protein; test: SPR (Biacore), mAb captured on the chip, antigen in solution, 25 C
Method: Kinetic rate constants (kₐ and kd) were determined using surface plasmon resonance and affinities (KD) were then calculated from the rate constants (kd/kₐ). Surface plasmon resonance was carried out on a BlAcore system (Biacore International AB, Uppsala, Sweden). […] Each of 5 concentrations was tested twice except the highest concentration which was tested 5 times in total, two times with a short dissociation of 300 seconds followed by three times with a dissociation of 60 minutes. The data sets from the long dissociation experiments were globally fit with the shorter association experiments to determine binding constants for the interactions. The analysis was carried out in HBS, pH 7.4 buffer at 25° C.

[9] = target: human IREM-1 (full-length, on cells) (human, UniProt Q8TDQ1 20-290); test: cell-based or functional assay

- Kd [1]: 2.3 nM
- binding result [2]: binds
- binding result [3]: no binding
- binding result [4]: no binding
- binding result [5]: no binding
- binding result [6]: no binding
- binding result [7]: no binding
- koff [8]: 0.00066 s⁻¹
- kon [8]: 282000 M⁻¹ s⁻¹
B1: chimeric anti-IREM-1 monoclonal antibody B11 (antibody, human IgG1, V domains shown)
VH: QIQLVQSGPELEKPGETVKISCKASGYTFTNYPMHWVKQAPGKGLKWMGWINTYSGVPTYADDFKGRFAFSLETSASTAYLQINNLKNEDMATYFCARMDYYSNGFNYWGQGTTLTVSS
VL: DVLMTQTPLSLPVSLGDQASISCRSSQSIVHSNGNTYLEWYLQKPGQSPKLLIYKVSNRFSGVPDRFSGSGSGTDFTLKISRVEAEDLGVYYCFQGSHVPWTFGGGTKLEIKR
notes: No cleavage site is stated; also called mAb B11; VL2VH2

- Kd [1]: 2.8 nM
- binding result [2]: binds
- binding result [3]: no binding
- binding result [4]: no binding
- binding result [5]: no binding
- binding result [6]: no binding
- binding result [7]: no binding
- koff [8]: 0.00072 s⁻¹
- kon [8]: 255000 M⁻¹ s⁻¹
B2: chimeric anti-IREM-1 monoclonal antibody D12 (antibody, human IgG1, V domains shown)
VH: EIQLQQSGAELVRPGTSVKVSCKASGYAFTNYLIEWVKQRPGQGLEWIGVINPGSGGSYYNEKFKGKTTLTADKSSSTAYMQLSSLAFDDSAVYFCARSESNYSYYYAMDYWGQGTSVIVSS
VL: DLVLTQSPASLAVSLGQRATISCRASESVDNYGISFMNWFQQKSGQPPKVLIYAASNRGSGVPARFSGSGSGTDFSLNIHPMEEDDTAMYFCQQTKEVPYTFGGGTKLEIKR
notes: No cleavage site is stated; also called mAb D12; clone #D12

- binding result [2]: binds
- binding result [3]: no binding
- binding result [4]: no binding
- binding result [5]: no binding
- binding result [6]: no binding
- binding result [7]: no binding
- CDC EC50 on AML cell line HL-60 [9]: 1970 to 3840 ng/mL
- CDC EC50 on stage M1 AML patient sample [9]: 0.0062 ng/mL
- kon [8]: 228000 M⁻¹ s⁻¹
B3: chimeric anti-IREM-1 monoclonal antibody 871.1 (antibody, human IgG1, V domains shown)
VH: EVKLVESGGGLVQPGGSLSLSCAASGFTFTDYYMSWVRQPPGMAPEWLGFIRNKANGYTTEYSASVKGRFTISRDDSQSILYLQMNALRAEDSATYYCAREDYGSSWGYYAMDCWGQGTSVTVSS
VL: DIVMTQSQKFMSTSVGDRVSVTCKASQNVDTNVAWYQQKPGQSPKALLYSASYRHSGVPDRFTGSGSETDFTLTITNVQSEDLAEYFCQQYNSFPLTFGSGTKLEIRR
notes: The CDC assays use an IgG2b isotype control, so the murine form may have been used there; No cleavage site is stated; also called mAb 871.1; VL1VH1
- CDC (complement-dependent cytotoxicity) EC50 on 293 cells expressing IREM-1 [9]: ~10 ng/mL
